We go through five molecules from publication PMC6399350, “Heterologous calcium-dependent inactivation of Orai1 by neighboring TRPV1 channels modulates cell migration and wound healing” (Communications Biology, 2019).

No end group written: not given here.

The target of assay [1] is T1, ANK1 domain printed on the microarray slide as bait (rat).
T1 construct: ankyrin domain 1 of rat TRPV1, 110-152; The methods say 'the ANK1 domain (see above)', which points to the ANK1-GFP fusion; Kept apart from m6 for that reason; source: purified peptide, printed on glass microarray slides coated with poly-D-lysine
T1 chain: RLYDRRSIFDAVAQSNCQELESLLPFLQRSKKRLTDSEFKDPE
The experiment in a line: peptide or protein array; TIRFM microarray; ANK1 domain printed on poly-D-lysine coated glass as bait, Orai1 terminus fused to GFP in solution, GFP fluorescence read. As to conditions: both partners purified.

Assay [2] deals with T2, Orai1-COOH-DsRed (carboxyl terminus of Orai1 fused to the red fluorescent protein) (human).
T2 construct: also called Orai1-dsRED-COOH peptide; source: spotted on the microarray slide; not shown: DsRed, C-terminal, kept
T2 chain: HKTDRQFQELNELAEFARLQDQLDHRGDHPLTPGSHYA
The experiment in a line: peptide or protein array; TIRFM microarray; Orai1-COOH-DsRed printed on poly-D-lysine coated glass as bait, ANK domains fused to GFP in solution at 1 uM, 3 min incubation, wash with saline, GFP fluorescence read. As to conditions: both partners purified.

B1: Orai1-COOH-GFP (carboxyl terminus of Orai1 fused to GFP) (domain or fragment, human)
chain: HKTDRQFQELNELAEFARLQDQLDHRGDHPLTPGSHYA
modifications: also: fused to GFP
notes: source: HEK293 in suspension, sonicated, immunoprecipitated with anti-GFP antibody (procedure as for the ANK-GFP fusions); not shown: GFP, C-terminal, kept
Consider B1, for which the binding result in assay [1] is on record as “binds”.

B2: ANK2-GFP (second ankyrin domain of rat TRPV1 fused to GFP) (domain or fragment)
chain: TGKTCLLKAMLNLHNGQNDTIALLLDVARKTDSLKQFVNASYTDSYY
notes: ankyrin domain 2 of rat TRPV1, 153-199; source: HEK293, transfected, in lysate (co-IP); HEK293 in suspension, sonicated, immunoprecipitated with anti-GFP antibody (microarray); not shown: enhanced GFP, C-terminal, kept
B2: in assay [2], the binding result is reported as “binds”.

B3: ANK3-GFP (third ankyrin domain of rat TRPV1 fused to GFP) (domain or fragment)
chain: KGQTALHIAIERRNMTLVTLLVENGADVQAAANGDFFKKTKGRPGFY
notes: ankyrin domain 3 of rat TRPV1, 200-246; source: HEK293, transfected, in lysate (co-IP); HEK293 in suspension, sonicated, immunoprecipitated with anti-GFP antibody (microarray); not shown: enhanced GFP, C-terminal, kept
B3: in assay [2], the binding result is “binds”.

B4: ANK1-GFP (first ankyrin domain of rat TRPV1 fused to GFP) (domain or fragment)
chain: RLYDRRSIFDAVAQSNCQELESLLPFLQRSKKRLTDSEFKDPE
notes: ankyrin domain 1 of rat TRPV1, 110-152; source: HEK293, transfected, in lysate (co-IP); HEK293 in suspension, sonicated, immunoprecipitated with anti-GFP antibody (microarray); not shown: enhanced GFP, C-terminal, kept
On to B4, for which the binding result in assay [2] is “binds”.

B5: ANK4-GFP (fourth ankyrin domain of rat TRPV1 fused to GFP) (domain or fragment)
chain: FGELPLSLAACTNQLAIVKFLLQNSWQPADISARDS
notes: ankyrin domain 4 of rat TRPV1, 247-282; source: HEK293 in suspension, sonicated, immunoprecipitated with anti-GFP antibody (microarray); not shown: enhanced GFP, C-terminal, kept
In the case of B5, the binding result in assay [2] was “binds”.
